Measurements as given in paper doi:10.64898/2025.12.10.692585.

Molecular target: Porcine RNA polymerase II, purified (porcine) (UniProt I3LGP4)
Assay: mass photometry

- stoichiometry N: 2
Substance: Porcine RNA polymerase II, purified (from UniProt I3LGP4 127-1300; P60899 1-125; A0A4X1VYD0 1-67; A0A8D0JYF1 1-58) (complex)
